Data taken from PMC8096265, “A functional LSD1 coregulator screen reveals a novel transcriptional regulatory cascade connecting R-loop homeostasis with epigenetic regulation” (Nucleic Acids Research, 2021).

Tests used:
[1] = tested on: RNA:DNA hybrid; test: RNA:DNA unwinding assay; assay type: biochemical; conditions: 4.79 μM recombinant DDX19A, 1 nM Cy-5-labeled RNA:DNA hybrid, 4 mM ATP, 30°C, 60 min, pH 7.5
Method: RNA:DNA unwinding assay was performed as described ([54]). In brief: RNA:DNA hybrids were annealed in vitro in 5 mM Tris/HCl pH 8.5. The sequence of the top RNA strand was: 5′‐[…]‐3′, and the sequence of the bottom DNA strand was 5′-[…]‐3′. The annealed RNA:DNA hybrid has a 5′ ssDNA overhang and is labeled with Cy-5. Unwinding experiments were carried out at 30°C for 60 min in 30 mM Tris–HCl (pH 7.5), 50 mM NaCl, 5 mM MgCl2, 2 mM DTT, 0.01% NP‐40, 0.1 mg/ml BSA, 4 mM ATP, 1 nM Cy-5‐labeled RNA:DNA hybrid substrate, in the presence of 4.79 μM recombinant DDX19A. The reaction was stopped by the addition of SDS to a final concentration of 0.5% and 20 ng proteinase K (20 mg/ml). The reaction was afterward loaded onto a 10% non-denaturing polyacrylamide gel and analysed using a FusionFX detection system (VILBER).

[2] = tested on: R-loops from NIH/3T3 cell lysate; test: S9.6 antibody IP, co-precipitation of LSD1 and DDX19A; assay type: cell-based, murine; conditions: NIH/3T3 whole cell lysate, Western blot
Method: 100 μl Dynabeads® Protein G were pre-blocked with 0.5% BSA/PBS for 2 h at 4°C. 10 × 10^6 non-crosslinked NIH/3T3 cells were harvested, washed once in 1× PBS and lysed in 1 ml Cell Lysis Buffer (85 mM KCl, 5 mM HEPES pH 8, 0.5% NP-40, cOmplete™ EDTA-free PIC) for 15 min on ice. Nuclei were collected by spinning 1 min at 15 000 × g, 4°C. The pellet was resuspended in 750 μl RSB buffer (10 mM Tris–HCl pH 7.5, 200 mM NaCl, 2.5 mM MgCl2, cOmplete™ EDTA-free PIC) supplemented with 0.2% sodium-deoxycholate, 0.1% SDS, 0.05% sodium-lauroyl-sarcosinate and 0.5% Triton X-100. Cells were sonicated for 4 min in an EpiShear Probe Sonicator (20 s pulse, 30 s pause, 40%). After taking 5% as input, samples were transferred to a 15 ml falcon tube and diluted 1:4 by addition of 2.3 ml RSB with 0.5% Triton X-100 (RSB+T). The samples were subjected to pre-clearing with 5 μg mouse IgG and 35 μl Dynabeads® Protein G for 1 h at 4°C. Magnetic beads were locked and the supernatant was split into three Eppendorf tubes. For the S9.6 antibody-specificity control, 40 U of RNAse H (NEB) were added to one of the tubes and all samples were incubated for 10 min at 37°C before adding the IP antibodies. The samples were subjected to IP with 4 μg of either the S9.6 antibody or mouse IgG and 32 μl pre-blocked beads per sample. 10 ng RNase A was added to each tube before rotating at 4°C for 2.5 h. […]

B1: DDX19A: DEAD-box helicase 19A; recombinant GST-tagged for in vitro tests, endogenous in S9.6 IP (protein, UniProt Q9NUU7 2-478, looked up)
ATP-dependent RNA helicase …: ATDSWALAVDEQEAAVKSMTNLQIKEEKVKADTNGIIKTSTTAEKTDEEEKEDRAAQSLLNKLIRSNLVDNTNQVEVLQRDPNSPLYSVKSFEELRLKPQLLQGVYAMGFNRPSKIQENALPMMLAEPPQNLIAQSQSGTGKTAAFVLAMLSRVEPSDRYPQCLCLSPTYELALQTGKVIEQMGKFYPELKLAYAVRGNKLERGQKISEQIVIGTPGTVLDWCSKLKFIDPKKIKVFVLDEADVMIATQGHQDQSIRIQRMLPRNCQMLLFSATFEDSVWKFAQKVVPDPNVIKLKREEETLDTIKQYYVLCSSRDEKFQALCNLYGAITIAQAMIFCHTRKTASWLAAELSKEGHQVALLSGEMMVEQRAAVIERFREGKEKVLVTTNVCARGIDVEQVSVVINFDLPVDKDGNPDNETYLHRIGRTGRFGKRGLAVNMVDSKHSMNILNRIQEHFNKKIERLDTDDLDEIEKIAN
modifications: GST tag
notes: DEAD-box helicase 19A; recombinant GST-tagged for in vitro tests, endogenous in S9.6 IP
[1]
  ability to resolve RNA:DNA hybrids in vitro: confirmed its ability to resolve RNA:DNA hybrids in vitro
[2]
  association with R-loops (co-precipitation with S9.6): strong physical association
